Data set [1] in a line: Aggregation tendency by turbidity of the solution (absorbance at 400 nm). The class given is physicochemical. The following applies: 0 to 0.1 A non-aggregated, above 0.3 aggregated. As for the experimental part:
The tendency of modified insulin to aggregate was assessed by measuring the turbidity of the solution. This method is based on the work of Leach and Scheraga (S. J. Leach and H. A. Scheraga (1964) J. Amer. Chem. Soc. 82, 4790-4792) who stated that absorbancy observed in insulin solutions between 350 and 600 nm is due to light scattering of aggregated particles. […] After deaeration under vacuo for 60 min. 1 ml of this solution was diluted with 1 ml of PBS, and the turbidity was measured on a Hewlett Packard spectrophotometer type HP 8590, utilizing as a blank a non-aggregated sample diluted by 1 volume of 8M guanidine hydrochloride. Aggregation was measured by the difference in absorbance determined at 400 nm for the two samples. Non-aggregated samples gave absorbance values of 0 to 0.1 Absorbance Unit(A), Values above 0.3 were considered to be aggregated.

A short description of data set [2]: Hypoglycemic potency (United States Pharmacopeia method). It counts as in vivo. As to conditions: USP Vol. 18 hypoglycemic potency assay; relative to unmodified insulin. The procedure:
Hypoglycemic potency of the modified insulin was measured as described in "The United States Pharmacopeia", Mark Publishing Co., Vol. 18, pp. 883-884 (1964). Bioactivity was 62% as compared to unmodified insulin.

For the substance “unmodified porcine sodium insulin: unmodified porcine sodium insulin, starting material and comparator [reference compound]”, the “Turbidity (absorbance at 400 nm)” value in data set [1] (dissolved in distilled water, treated by the same procedure) is given as 0.51 A.
For “Example 4: porcine sodium insulin phosphorylated with concentrated phosphoric acid and DCC in DMF”, the “Bioactivity (hypoglycemic potency) as compared to unmodified insulin” value in data set [2] was 85%.
With “Example 1: porcine sodium insulin sulphated with sulfuric acid and N,N' dicyclohexyl carbodiimide in dimethylformamide”, the “Turbidity (difference in absorbance at 400 nm)” value in data set [1] (dissolved in PBS, passed 50 times through syringe with 26G needle, blank in guanidine hydrochloride) worked out at 0.08 A. Besides, the “Bioactivity (hypoglycemic potency) as compared to unmodified insulin” value in data set [2] is 62%.

Source of the values: patent US4534894A, “Process for sulphation and phosphorylation of proteins and peptides” (The Rockefeller University, priority 1982, dated 1985).
